{"source": "paper PMC8172134", "target": "WIV16 RBD ([change] domain) (bat SARS-like coronavirus WIV16)", "data": [{"substance": "human monoclonal antibody 47D11", "values": [{"measurement": "IC50 of neutralization of WIV16-S pseudotyped VSV (luciferase) on VeroE6 cells", "result": 0.165, "unit": "µg/mL"}]}]}
